Target: DesC, NADH-dependent 20α-hydroxysteroid dehydrogenase of Clostridium scindens ATCC 35704 (Clostridium scindens ATCC 35704)
Experiment: crystal structure

Substance: DesC, NADH-dependent 20α-hydroxysteroid dehydrogenase of Clostridium scindens ATCC 35704 (enzyme)
- stoichiometry N: 4

— paper doi:10.1101/2020.06.12.149468
